From paper PMC4600597

Test system: C[C@H](CCC[C@@H](C)[C@H]1CC[C@H]2[C@@H]3CCC4=CC(=O)CC[C@]4(C)[C@H]3CC[C@]12C)C(=O)SCCNC(=O)CCNC(=O)[C@H](O)C(C)(C)COP(=O)(O)OP(=O)(O)OC[C@H]1O[C@@H](n2cnc3c(N)ncnc32)[C@H](O)[C@@H]1OP(=O)(O)O
Test: purified protein
Details: pH 8.5; 25.0 °C

“MCR (Rv1143) (Mycobacterium tuberculosis H37Rv)” gave a Km of 6.5 ± 1.4 µM.
